From patent US20250101100A1 come the findings set out here.

In test [1] the target is cynomolgus monkey NKG2C on CHO cells (cynomolgus monkey). Nature of the test: cell binding on CHO-cyno NKG2C cells.
Test [2] addresses human NKG2A-CD94 heterodimer (extracellular domains) (human) (UniProt Q13241). As to the kind of experiment: SPR Biacore T200, 37 °C, antibody captured by anti-human Fc on C1 chip, hNKG2A-hCD94 as analyte.
Test [3] deals with mouse NKG2A on cells (mouse). Nature of the test: blockade of Qa-1b tetramer binding to mNKG2A-expressing CHO cells.
For test [4], the target named is mouse NKG2A on cells (mouse). Nature of the test: binding to mNKG2A-expressing CHO cells.

Chain of human NKG2A-CD94 heterodimer (extracellular domains) (human) (chain, as listed by the source, chain 1 of 2): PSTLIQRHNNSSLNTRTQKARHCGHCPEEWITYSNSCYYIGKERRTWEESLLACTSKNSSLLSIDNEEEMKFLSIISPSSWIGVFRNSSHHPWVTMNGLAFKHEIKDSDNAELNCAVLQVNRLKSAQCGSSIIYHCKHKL
Chain of human NKG2A-CD94 heterodimer (extracellular domains) (human) (Q13241 32-179, chain 2 of 2): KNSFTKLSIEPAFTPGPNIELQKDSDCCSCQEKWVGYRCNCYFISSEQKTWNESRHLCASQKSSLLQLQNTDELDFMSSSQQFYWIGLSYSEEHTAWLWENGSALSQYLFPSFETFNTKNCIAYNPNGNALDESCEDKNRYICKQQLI

B1: NKG2A.9 antibody (antibody, human IgG1, kappa, V domains shown)
VH: EVQLVESGGGLVKPGGSLRLSCAASGFTFSSHSMNWVRQAPGKGLEWVSAISSSSSYIYYADSVKGRFTISRDNAKNSLYLQMNSLRAEDTAVYYCAREEWGLPFDYWGQGTLVTVSS
VL: AIQLTQSPSSLSASVGDRVTITCRASQGISSALAWYQQKPGKAPKLLIYDASSLKSGVPSRFSGSGSGTDFTLTISSLQPEDFATYYCQQFNSYPLTFGQGTRLEIKR
One may read the EC50 as the midpoint of the concentration-response curve. Turning to B1, the EC50 in test [1] was determined as 0.8 nM.

B2: Z270 (antibody, from another filing, V domains shown)
VH: QVQLQQPGAELVRPGASVKLSCKASGYTFTSYWMNWVKQRPEQGLQWIGRIDPYDSETHYSQKFKDKAILTVDKSSSTAYMRLSSLTSEDSAVYYCARGGYDFDVGTLYWFFDVWGAGTTVTVS
VL: DIQMTQSPASLSASVGETVTITCRASENIYSYLAWYQQKQGKSPQFLVYNAKTLAEGVPSRFSGSGSGTQFSLKINSLQPEDFGSYYCQHHYGTPRTFGGGTKLEIK
The term Kd denotes the constant that tells how readily two partners part at equilibrium. What is called koff is a measure of how fast the partners let go of each other. By kon is commonly meant a measure of how fast the partners come together. In the case of B2, in test [2], the Half-life of Antibody/Analyte Complex was 3 to 4 s, the Kd was found to be 25 nM, the koff is 0.2 s⁻¹ and the kon was 8e+06 M⁻¹ s⁻¹.

B3: NKG2A.3 antibody (anti-mNKG2A surrogate, mIgG1-D265A) (antibody, V domains shown)
VH: QVQLKQSGAELVKPGASVKISCKTSGYTFTDGYMHWVEQNPGQGLEWIGRIDPDSGYTMYNQKFQDKATLTRDKSSSTVYMELRSLTSEDSAVYYCAINYGEYWYFDFWGQGTQVTVSS
VL: DIVMTQSPSSLAVSAGDKVTINCKSSQTLFSGRYNYLAWYQQKTGQAPKLLIYYTSTRHTGVPGRFIGSGSGTDFTLTINNLQTEDLGNYYCQQHYSTPYTFGAGTNLEIRR
As a reminder, the IC50 is the concentration needed to halve the response being measured. In turn, B3 yielded an IC50 in test [3] of 0.4 nM. In test [4], this molecule displayed an EC50 of 0.3 nM.
